Biological target: the molecule itself
Experiment: SEC

B1: PMK3 (p38 MAPK of C. elegans), full length (enzyme, UniProt O44514 1-474, looked up)
chain: MASVPSSSSLPVSHVRRHEDVSTPSAPPTKRSNNQSQPPESYEPNTWLQQQREQEQQKKLAAENIKKQSIEATGNNEMVGEEEEDILSKPCGPHKRRFQFVMIRNITFAIPEGYDVEPNSIEYLGGGSFGNVIKTSAVCRDGLRRYVAIKKMREPFFDPHHARRIFRETKLLQLMRHDNIICALDIYTPDEENDFRDVYVVTEFAGRSLYQILKQQRDYGRRVLTDEHIKFIIYQIIRALKYIHSANIIHRDLKPGNLALTDDSDLMILDFGLARSLEKKDTSLTQYVQTRWYRSPEVIYWKIDSYTNLADMWSLGCIAAELLTGEPLFPGDEPNAQYQRITQLCGSPDEELLTKIENDNSSAIKAVIQSYTTHKRRNFRDVFSAHNPSEDFIDLLEKLLVLDPEKRITVEEAIQHPYLAEFSLPEDEPRADHIFDLDDSQARTRFEWRDAVWKEIMNYKRLSSSPLIPGEADR
- binding result: binds
